This is an account of results in publication PMC6150290.

Common to all, as to test: EMSA
Common to all, as to conditions: EMSA: 0.5 nM DNA duplex, 20 uL, 10 mM Tris-HCl pH 7.6, 5 mM DTT, 10% (component cut off in material), no NaCl; temperature not in material

The subject of data set [1] is C145S hAGT (human).
Data set [2] has as its system OGT (wild type) (Escherichia coli).
Data set [3] relates to S134P OGT (Escherichia coli).

On to Control (G-C), for which the values for the Kd in data set [1], in data set [2] and in data set [3] were 10.6 µM, 1.23 µM and 0.86 µM, respectively.
